Measured values taken from patent US20260132392, “GENE EDITING SYSTEMS COMPRISING REVERSE TRANSCRIPTASES” (Metagenomi, Inc., published 2026).

Molecular target: T1, Ec86 retron RT (Escherichia coli, UniProt P23070 P23070:1-320)
T1 sequence: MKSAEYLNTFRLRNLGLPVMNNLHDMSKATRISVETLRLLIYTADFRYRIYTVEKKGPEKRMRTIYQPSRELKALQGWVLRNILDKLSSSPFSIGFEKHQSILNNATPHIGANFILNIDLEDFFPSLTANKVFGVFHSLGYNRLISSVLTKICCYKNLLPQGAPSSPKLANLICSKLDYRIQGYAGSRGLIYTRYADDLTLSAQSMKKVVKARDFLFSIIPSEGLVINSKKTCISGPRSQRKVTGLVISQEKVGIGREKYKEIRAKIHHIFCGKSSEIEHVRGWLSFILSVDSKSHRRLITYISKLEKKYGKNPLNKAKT
Assay: msdDNA qPCR, 37 C 2 h
Conditions: tags: N-terminal Strep tag
Procedure: The Ec86 RT was co-expressed with the ncRNA substrate (final 100 nM) in a cell-free expression system) supplemented with dNTPs (final 0.3 mM). Expression constructs were codon-optimized for E. coli and contained an N-terminal single Strep tag. After incubation for 2 h at 37° C., the reaction was quenched by heat denaturation at 95° C. for 2 min, followed by treatment by RNase A for 30 min at 37° C. […] The resulting reverse transcription products, herein referred to as msdDNA, were diluted prior to qPCR to ensure msdDNA concentrations were within the linear range of detection. The amount of msdDNA was quantified by extrapolating values from a standard curve generated with a DNA template of known concentrations.

B1: Ec86 wild-type ncRNA (ssRNA)
RNA: GGAUGCGCACCCUUAGCGAGAGGUUUAUCAUUAAGGUCAACCUCUGGAUGUUGUUUCGGCAUCCUGCAUUGAAUCUGAGUUACUGUCUGUUUUCCUUGUUGGAACGGAGAGCAUCGCCUGAUGCUCUCCGAGCCAACCAGGAAACCCGUUUUUUCUGACGUAAGGGUGCGCAACUUUC
B1: binds.
